Data: patent US20230012273A1 (Boehringer Ingelheim, published 2023)

Experiments:
[1] = biological target: T1, full-length human SIRPβL (NP_001129316.1) on cells (human, UniProt Q5TFQ8 30-398); assay: flow cytometry, U937 SIRPα-KO cells expressing full-length human SIRPβL
T1 construct: one molecule for U937 SIRPα-KO transfectants (NP_001129316.1) and Expi-CHO transfectants (Q5TFQ8); also called SIRPβ1v3; βL WT
Experimental: (§1) Antibody binding to cells expressing full-length human SIRPβ1 (NP_006056.2) and SIRPβL (NP_001129316.1) is evaluated by flow cytometry. SIRPβ1- or SIRPβL-expressing U937^{SIRPα KO} cells are blocked with donkey IgG and incubated on ice with increasing concentrations of antibodies for 60 minutes, washed and stained with AF647-conjugated donkey F(ab′)₂ anti-human IgG secondary reagent. Cells are washed, fixed, and analyzed by flow cytometry. Median fluorescent intensity is determined and used as a measure of antibody binding.

[2] = biological target: T1, full-length human SIRPβL …; assay: flow cytometry, Expi-CHO cells expressing full-length wild-type human SIRPβL
Experimental: Expi-CHO parental cells are transduced with lentiviruses containing either full-length wild-type human SIRPβL (Q5TFQ8) or full-length human SIRPβL with a single amino acid point mutation (Table 62) and sorted to achieve matching expression levels. These cells are blocked with donkey IgG and incubated on ice with increasing concentrations of antibodies for 60 minutes, washed and stained with AF647-conjugated donkey F(ab′)₂ anti-human IgG antibodies. Stained cells are washed, fixed, and analyzed by flow cytometry. Median fluorescent intensity is determined and used as a measure of antibody binding.
A single amino acid substitution (H→D) introduced within the loop region maintained, strengthened, or facilitated antibody binding to these cells (FIG. 34B, Table 63).

[3] = biological target: T2, full-length human SIRPγ (NP_061026.2) on cells (human, UniProt Q9P1W8 29-387); assay: flow cytometry, CHO cells; CHO cells expressing hSIRPγ; n = 1
T2 construct: also called CHO-hSIRPγ; γ WT
Experimental: as §1, with “expressing” for “expressing full-length”, “SIRPγ(NP_061026.2)” for “SIRPβ1 (NP_006056.2) and SIRPβL (NP_001129316.1)”, “SIRPγ-expressing CHO” for “SIRPβ1- or SIRPβL-expressing U937^{SIRPα KO}”, “antibody” for “antibodies”

[4] = biological target: T3, full-length human SIRPβ1 (NP_006056.2) on cells (human, UniProt O00241 30-398); assay: flow cytometry, U937 SIRPα-KO cells expressing full-length human SIRPβ1
T3 construct: also called β1 WT
Experimental: as §1

[5] = biological target: T4, cynomolgus SIRPβ1v3 extracellular domain + His-tag (XP_005568593) (cynomolgus monkey); assay: SPR, Ab captured, ECD-His analyte
T4 construct: also called Cyno SIRPβ1v3; cynoSIRPβ1v3
T4 chain: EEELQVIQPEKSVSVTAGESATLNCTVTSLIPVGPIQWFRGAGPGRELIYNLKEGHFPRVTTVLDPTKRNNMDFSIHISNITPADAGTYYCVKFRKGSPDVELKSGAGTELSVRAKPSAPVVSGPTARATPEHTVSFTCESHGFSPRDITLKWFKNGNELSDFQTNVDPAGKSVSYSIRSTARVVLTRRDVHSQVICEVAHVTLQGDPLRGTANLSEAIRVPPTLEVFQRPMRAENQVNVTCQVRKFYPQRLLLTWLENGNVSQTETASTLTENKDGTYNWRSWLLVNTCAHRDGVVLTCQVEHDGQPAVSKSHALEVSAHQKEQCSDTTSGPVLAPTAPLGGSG
Procedure, shortened: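 SPR; Ab capture surface, ethanolamine-deactivated (1M, 420 s, 10 μl/min). Analyte: SIRP ECD+His, 2-fold dilution series in 1×HBS-EP+. Inject 300 s @ 30 μl/min; dissoc. 600 s.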

[6] = biological target: T5, full-length human SIRPγ (NP_061026.2) on cells (human, UniProt Q9P1W8 29-387); assay: flow cytometry, primary human CD3+ T cells
T5 construct: on CHO and Expi-CHO cells; endogenous on primary human CD3+ T cells; also called γ WT
Procedure, shortened: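 PBMCs blocked with donkey IgG were incubated on ice for 60 min with increasing antibody concentrations, then detected with AF647 donkey F(ab′)₂ anti-human IgG. After fixation, median fluorescence intensity of the gated CD3+ population served as the binding measure.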

[7] = biological target: T6, recombinant human SIRPγ extracellular domain (ECD)/His protein (NP_061026.2) (human, UniProt Q9P1W8 29-360); assay: ELISA, coated SIRPγ ECD/His
T6 construct: coated on ELISA plates; also called recombinant hSIRPγ; not shown: His-tag
T6 sequence (Q9P1W8 29-360): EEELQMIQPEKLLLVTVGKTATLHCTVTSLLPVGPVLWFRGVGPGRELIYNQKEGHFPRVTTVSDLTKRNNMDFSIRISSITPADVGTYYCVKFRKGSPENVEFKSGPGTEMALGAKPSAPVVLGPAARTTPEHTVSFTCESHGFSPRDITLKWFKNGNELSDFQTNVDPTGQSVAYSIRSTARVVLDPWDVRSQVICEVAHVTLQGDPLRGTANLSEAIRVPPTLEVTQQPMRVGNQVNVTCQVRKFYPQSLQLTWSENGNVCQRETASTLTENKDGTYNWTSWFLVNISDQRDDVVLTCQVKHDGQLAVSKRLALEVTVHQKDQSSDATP

T1 sequence (Q5TFQ8 30-398): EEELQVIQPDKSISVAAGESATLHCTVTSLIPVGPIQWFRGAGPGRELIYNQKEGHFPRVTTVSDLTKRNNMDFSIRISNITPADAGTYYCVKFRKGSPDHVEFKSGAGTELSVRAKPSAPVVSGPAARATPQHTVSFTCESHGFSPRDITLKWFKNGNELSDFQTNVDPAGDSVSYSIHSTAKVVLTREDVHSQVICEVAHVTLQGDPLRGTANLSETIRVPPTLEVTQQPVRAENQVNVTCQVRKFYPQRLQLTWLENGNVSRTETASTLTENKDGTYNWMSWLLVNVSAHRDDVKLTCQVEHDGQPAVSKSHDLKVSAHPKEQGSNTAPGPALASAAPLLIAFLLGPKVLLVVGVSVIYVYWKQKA
T3 sequence (O00241 30-398): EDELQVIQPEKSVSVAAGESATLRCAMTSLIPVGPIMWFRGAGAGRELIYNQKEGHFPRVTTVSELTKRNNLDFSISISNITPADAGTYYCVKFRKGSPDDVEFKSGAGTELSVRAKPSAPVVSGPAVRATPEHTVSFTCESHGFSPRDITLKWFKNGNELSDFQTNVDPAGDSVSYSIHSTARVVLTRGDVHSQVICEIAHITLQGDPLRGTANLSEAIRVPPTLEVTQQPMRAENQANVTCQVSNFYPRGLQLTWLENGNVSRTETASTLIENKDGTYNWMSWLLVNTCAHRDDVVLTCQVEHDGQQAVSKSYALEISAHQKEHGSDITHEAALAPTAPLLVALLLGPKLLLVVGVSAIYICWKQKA

B1: Antibody A (antibody, human IgG1, kappa, L234A L235A)
heavy: not shown
light: DIQMTQSPSSLSASVGDRVTITCRASQDINNYLAWFQQKPGKAPKSLIYTASSLHSGVPSKFSGSGSGTDFTLTISSLQPEDFATYYCQQYVSYPYTFGQGTKLEIKRTVAAPSVFIFPPSDEQLKSGTASVVCLLNNFYPREAKVQWKVDNALQSGNSQESVTEQDSKDSTYSLSSTLTLSKADYEKHKVYACEVTHQGLSSPVTKSFNRGEC
B1: no binding (tested: about 200 nM) [1].

B2: Antibody A10 (antibody, human IgG1, kappa, L234A L235A)
heavy: not shown
light: DIQMTQSPSSLSASVGDRVTITCRASQDINNYLAWFQQKPGKAPKSLIYTASSLHSGVPSKFSGSGSGTDFTLTISSLQPEDFATYYCQQYVSYPYTFGQGTKLEIKRTVAAPSVFIFPPSDEQLKSGTASVVCLLNNFYPREAKVQWKVDNALQSGNSQESVTEQDSKDSTYSLSSTLTLSKADYEKHKVYACEVTHQGLSSPVTKSFNRGEC
B2: no binding (tested: about 67 nM) [2].

B3: Antibody B (antibody, human IgG1, kappa, L234A L235A, V domains shown)
VH: QVQLVQSGAEVKKPGASVKVSCKASGYTFTGNYMHWVRQAPGQGLEWMGWINPNSGGTNYAQKFQGRVTMTRDTSISTAYMELSRLRSDDTAVYYCVSGSGWYENYYYYGMDVWGQGTTVTVSS
VL: DIQMTQSPSSVSASVGDRVTITCRASQGISSWLAWYQQKPGKAPKLLIYAESSLQSGVPSRFSGSGSGTDFTLTISSLQPEDFATYYCQQANSFPLTFGGGTKVEIKR
B3 was tested, and the EC50 [3] was 11.8 nM.

B4: Antibody E22 (antibody, human IgG1, kappa, L234A L235A, V domains shown)
VH: QVQLQESGPGLVKPSETLSLTCTVSGGSIRDYYWSWIRQPPGKGLEWIGFIYYNGRTFYQSSLKSRVTISLDTSKNQFSLKMTSVTAADTAVYYCARVRAYSGIGLDGTDVWGQGTTVTVSS
VL: DIVMTQSPLSLPVTPGEPASISCRSSQSLLYSTGYTYLDWYLQRPGQSPQLLIYGGSSRASGVPDRFSGSGSGTDFTLKISRVEAEDVGVFYCGQALQTPLTFGQGTKVEIKR
B4: no binding (tested: about 200 nM) [4].

B5: Antibody A (antibody, human IgG1, kappa, L234A L235A)
heavy: not shown
light: DIQMTQSPSSLSASVGDRVTITCRASQDINNYLAWFQQKPGKAPKSLIYTASSLHSGVPSKFSGSGSGTDFTLTISSLQPEDFATYYCQQYVSYPYTFGQGTKLEIKRTVAAPSVFIFPPSDEQLKSGTASVVCLLNNFYPREAKVQWKVDNALQSGNSQESVTEQDSKDSTYSLSSTLTLSKADYEKHKVYACEVTHQGLSSPVTKSFNRGEC
Binder B5 has a Kd [5] of 201 nM.

B6: Antibody A10 (antibody, human IgG1, kappa, L234A L235A)
heavy: not shown
light: DIQMTQSPSSLSASVGDRVTITCRASQDINNYLAWFQQKPGKAPKSLIYTASSLHSGVPSKFSGSGSGTDFTLTISSLQPEDFATYYCQQYVSYPYTFGQGTKLEIKRTVAAPSVFIFPPSDEQLKSGTASVVCLLNNFYPREAKVQWKVDNALQSGNSQESVTEQDSKDSTYSLSSTLTLSKADYEKHKVYACEVTHQGLSSPVTKSFNRGEC
B6: no binding [6].

B7: Anti-SIRPα antibody KWAR23 (antibody, V domains shown)
VH: EVQLQQSGAELVKPGASVKLSCTASGFNIKDYYIHWVQQRTEQGLEWIGRIDPEDGETKYAPKFQDKATITADTSSNTAYLHLSSLTSEDTAVYYCARWGAYWGQGTLVTVSS
VL: QIVLTQSPAIMSASPGEKVTLTCSASSSVSSSYLYWYQQKPGSSPKLWIYSTSNLASGVPARFSGSGSGTSYSLTISSMEAEDAASYFCHQWSSYPRTFGAGTKLELK
With B7 the EC50 [7] was 0.1 nM.
